The text below walks through data of article PMC6092121, “Structure of mouse protocadherin 15 of the stereocilia tip link in complex with LHFPL5” (eLife, 2018).

Sequences and labels used below:
B1: LHFPL5, purified in complex with PCDH15 for cryo-EM (Strep-mCerulean removed) (natural protein, mouse (Mus musculus), UniProt Q4KL25 2-219, looked up)
chain: VKLLPAQEAAKIYHTNYVRNSRAVGVMWGTLTICFSVLVMALFIQPYWIGDSVSTPQAGYFGLFSYCVGNVLSSELICKGGPLDFSSIPSRAFKTAMFFVALAMFLIIGSIICFSLFFVCNTATVYKICAWMQLAAATGLMIGCLVYPDGWDSSEVRRMCGEQTGKYTLGHCTIRWAFMLAILSIGDALILSFLAFVLGYRQDKLLPDDYKADGNEEV
notes: called full length LHFPL5 in the text; also called TMHS; not shown: Strep, N-terminal, cleaved; mCerulean, N-terminal, cleaved

Data set [1] deals with the molecule itself. Nature of the data set: cryo-EM structure; PCDH15_(1EC)-LHFPL5 complex co-expressed and co-purified in digitonin; C2, ~4.5 Å.
Data set [2] deals with the molecule itself. Nature of the data set: AUC; sedimentation velocity, 20°C, 50,000 rpm, absorbance 280 nm, 20 mM Tris pH 8.0, 150 mM NaCl; loading concentrations 0.1-57.8 µM; sw isotherm fitted with a monomer-dimer model; dimer to monomers.
Data set [3] concerns the molecule itself. Nature of the data set: AUC; sedimentation velocity, global direct boundary modelling (Lamm equation, kinetic homo-dimerization model) of samples at 2.3, 7.0 and 11.8 µM; dimer to monomers.
Data set [4] addresses B1. Kind of data set: cryo-EM structure; PCDH15_(1EC)-LHFPL5 complex co-expressed and co-purified in digitonin; C2, ~4.5 Å. Conditions: both partners purified.
The target in data set [5] is B1. Kind of data set: cryo-EM structure; PCDH15_(4EC)-LHFPL5 complex co-expressed and co-purified in digitonin with 1 mM CaCl2; Volta phase plate; straight conformation, C2, ~11.3 Å; domains fitted as rigid bodies. Conditions: both partners purified.
Data set [6] deals with the molecule itself. The data set is described as above.

One may read the stoichiometry N as the number of molecules, sites or subunits per partner or assembly. As to B1, in data set [1], the “stoichiometry N” value was found to be 2.

B2: PCDH15 EC11-ELAUC (domain or fragment, mouse (Mus musculus), UniProt Q99PJ1 27-30, looked up)
chain: QYDDHPPVFQKKFYIGGVSEDARMFASVLRVKATDRDTGNYSAMAYRLIIPPIKEGKEGFVVETYTGLIKTAMLFHNMRRSYFKFQVIATDDYGKGLSGKADVLVSVVNQLDMQVIVSNVPPTLVEKKIEDLTEILDRYVQEQIPGAKVVVESIGARRHGDAYSLEDYSKCDLTVYAIDPQTNRAIDRNELFKFLDGKLLDINKDFQPYYGEGGRILEIRTPEAVTSIKKRGESLGYTEG
modifications: treated with PNGase
notes: signal peptide in the construct; also called protocadherin 15; source: HEK293S GnTI- cells, BacMam, secreted, purified (TALON, PNGase treatment, SEC; no thrombin digestion); not shown: 8xHis, C-terminal, kept
The Kd is the free concentration of one partner at which half of the binding sites on the other are occupied at equilibrium, for simple one-to-one binding. Low values mean a tighter complex, high ones a looser complex. Broadly, the koff is the rate constant with which the complex falls apart. For the molecule B2, in data set [2], the Kd was 5.7 µM and the “stoichiometry N” value came out at 2. Also, in data set [3], the dissociation constant Kd worked out at 6.64 µM and the koff worked out at 0.00035 s⁻¹.

B3: PCDH15_(1EC) (EC11 to CR), purified in complex with LHFPL5 for cryo-EM (domain or fragment, mouse (Mus musculus), UniProt Q99PJ1 27-30, looked up)
chain: QYDDHPPVFQKKFYIGGVSEDARMFASVLRVKATDRDTGNYSAMAYRLIIPPIKEGKEGFVVETYTGLIKTAMLFHNMRRSYFKFQVIATDDYGKGLSGKADVLVSVVNQLDMQVIVSNVPPTLVEKKIEDLTEILDRYVQEQIPGAKVVVESIGARRHGDAYSLEDYSKCDLTVYAIDPQTNRAIDRNELFKFLDGKLLDINKDFQPYYGEGGRILEIRTPEAVTSIKKRGESLGYTEGALLALAFIIILCCIPAILVVLVSYRQFKVRQAECTKTARIQSAMPAAKPAAPVPAAPAPPPPPPPPPPGAHLYEELGESAMH
notes: signal peptide in the construct; source: HEK293 tsa201 (suspension), BacMam co-infection with LHFPL5, purified (Strep-Tactin, TALON, thrombin, SEC in digitonin); not shown: mVenus, C-terminal, cleaved; 8xHis, C-terminal, cleaved
As to B3, in data set [4], the binding result is “binds”. Besides, the “stoichiometry N” value in data set [1] amounted to 2.

B4: PCDH15_(4EC), purified in complex with LHFPL5 for cryo-EM (domain or fragment, mouse (Mus musculus), UniProt Q99PJ1 27-30, looked up)
chain: QYDDSPVFTNSTYTVVVEENLPAGTSFLQIEAKDVDLGANVSYRIRSPEVKHLFALHPFTGELSLLRSLDYEAFPDQEASITFLVEAFDIYGTMPPGIATVTVIVKDMNDYPPVFSKRIYKGMVAPDAVKGTPITTVYAEDADPPGMPASRVRYRVDDVQFPYPASIFDVEEDSGRVVTRVNLNEEPTTIFKLVVVAFDDGEPVMSSSATVRILVLHPGEIPRFTQEEYRPPPVSELAARGTVVGVISAAAINQSIVYSIVAGNEEDKFGINNVTGVIYVNSPLDYETRTSYVLRVQADSLEVVLANLRVPSKSNTAKVYIEIQDENDHPPVFQKKFYIGGVSEDARMFASVLRVKATDRDTGNYSAMAYRLIIPPIKEGKEGFVVETYTGLIKTAMLFHNMRRSYFKFQVIATDDYGKGLSGKADVLVSVVNQLDMQVIVSNVPPTLVEKKIEDLTEILDRYVQEQIPGAKVVVESIGARRHGDAYSLEDYSKCDLTVYAIDPQTNRAIDRNELFKFLDGKLLDINKDFQPYYGEGGRILEIRTPEAVTSIKKRGESLGYTEGALLALAFIIILCCIPAILVVLVSYRQFKVRQAECTKTARIQSAMPAAKPAAPVPAAPAPPPPPPPPPPGAHLYEELGESAMH
modifications: N-linked glycosylation (predicted sites; density at EC10 and EC11)
notes: signal peptide in the construct; the tag may have stayed on; not shown: mVenus, C-terminal, cleaved; 8xHis, C-terminal, cleaved
For the molecule B4, the binding result in data set [5] and in data set [6] was “binds” each time.
